Experimental findings from the supplement of paper PMC12042874 are described below.

± gives the uncertainty stated by the source.

The data set is described as follows: amyloid nucleation score (Sup35N fusion, yeast selection) (log enrichment); library NNK2; higher = more nucleation; inactive = no reads after selection. The method, boiled down: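 The nucleation score is the DiMSum log enrichment of output over input reads, centred on the mode score of non-aggregating sequences. Only sequences with 100 or more input reads were scored, using Illumina sequencing of input and output plasmid inserts. Psi-negative yeast expressing Sup35N fused to peptides of 20 random codons were induced 24 hours with 100 μM copper sulfate and grown 7 days at 30°C on medium lacking adenine and uracil.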
With WYAHGLISVCFVCAGLESLG, the amyloid nucleation score was -0.251 ± 0.76.

WYERVWLAWSR yielded an amyloid nucleation score of 0.66 ± 0.57.

For WYNILLHNSAAEYLTY, the amyloid nucleation score was -0.296 ± 0.34.

WYSIIREEAALSYCSSHYKN came in with an amyloid nucleation score of 2.49 ± 0.15.

WYSYRL: the amyloid nucleation score was -0.11 ± 0.46.

In the case of YAFKRECWCHYHHHCVQMFW, the amyloid nucleation score came to 0.49 ± 0.33.

YAFQW had an amyloid nucleation score of 0.152 ± 0.77.

As for YAGTH, the amyloid nucleation score is -1.72 ± 0.48.

With YAHRTSTA, the amyloid nucleation score was 0.342 ± 0.62.

As to YAPRCNPNRNLLNMT, the amyloid nucleation score is 4.47 ± 0.058.

In turn, YATKFN returned an amyloid nucleation score of 0.058 ± 0.79.

Turning to YCFSVYKGVGIGKKCGYLSS, the amyloid nucleation score result was “inactive”.

In turn, YCGKTIQCSRRAPTAEDLGM had an amyloid nucleation score of 2.76 ± 0.12.

Consider YCGLFKGYVYRL, for which the amyloid nucleation score is -1.43 ± 0.55.

As for YCKGSS, the amyloid nucleation score is -0.46 ± 1.

Consider YCKRLKQAMPHY, for which the amyloid nucleation score was -0.337 ± 0.63.

YCLVTRLHR had an amyloid nucleation score of 0.185 ± 0.8.

Turning to YCMASLSSLNLVRHWDDESS, the amyloid nucleation score is -1.01 ± 1.1.

For the substance YCRHGGNRASL, the amyloid nucleation score came out at 0.783 ± 0.53.

Turning to YCTNFYVEAGAIGS, the amyloid nucleation score is -0.682 ± 0.42.

In turn, YCTPCLW displayed an amyloid nucleation score of 0.452 ± 0.66.

The substance YCTSDG came in with an amyloid nucleation score of 0.559 ± 0.8.

As to YCVTTVGARCLVKFHHLDSG, the amyloid nucleation score worked out at 2.11 ± 0.15.

YCYEPLTC had an amyloid nucleation score of 0.508 ± 0.49.

The substance YDEKMRVHDKYKTQPLERGR showed an amyloid nucleation score of 4.37 ± 0.1.

For YDLLGHKAVFEGERVNW, the amyloid nucleation score came to 0.003 ± 0.4.

As for YEDSGRRKLLNGP, the amyloid nucleation score was -0.381 ± 1.1.

The substance YFIAASYCDLTYLKTIDWTG showed an amyloid nucleation score of 2.76 ± 0.067.

In the case of YFKMSFCSFWL, the amyloid nucleation score was 1.91 ± 0.091.

On to YFMTKETLHC, for which the amyloid nucleation score was -1.64 ± 0.54.

Consider YFNSSVLILVVWLLY, for which the amyloid nucleation score entry is “inactive”.

For the substance YFRDRSFKKIILLPNWFMNT, the amyloid nucleation score entry was “inactive”.

Turning to YFRSCDKCGAYEANHEFKTT, the amyloid nucleation score result was “inactive”.

YFRVFFFLMSIYTDKN: the amyloid nucleation score result is “inactive”.

YFRYMLW displayed an amyloid nucleation score of 4.16 ± 0.1.

As for YFSFFVSKVTGGWSCHVESA, the amyloid nucleation score was -0.004 ± 0.34.

Regarding YFWTFTSWQTTGRCHSP, the amyloid nucleation score was found to be 0.521 ± 0.17.

As for YGCLNYSRWRTSAGMDTNNG, the amyloid nucleation score was -0.794 ± 0.63.

Take YGDGGDIC: the amyloid nucleation score is -0.612 ± 0.35.

As to YGEELE, the amyloid nucleation score entry was “inactive”.

Regarding YGFLCRL, the amyloid nucleation score entry is “inactive”.

Substance YGKGDLGRCSLDTSTTLSDW showed an amyloid nucleation score of 0.252 ± 0.65.

In the case of YGLDRIFVSGSMNATMIKHN, the amyloid nucleation score entry is “inactive”.

As for YGLPYEVLFNHSHTSNRAYS, the amyloid nucleation score is -0.532 ± 0.43.

Take YGLWVYMNWLVSLRSLLTRI: the amyloid nucleation score entry was “inactive”.

As to YGPYSLSSF, the amyloid nucleation score is -0.105 ± 1.1.

Regarding YGQAMWASIFMIYRLPKTLR, the amyloid nucleation score was -1.13 ± 0.28.

Take YGQMVLRPFDTFVARQ: the amyloid nucleation score is -1.05 ± 0.48.

Take YGRSTHPGSRSF: the amyloid nucleation score is -1.25 ± 0.63.

As to YGWRSRYVPCPAGRRCVMSQ, the amyloid nucleation score turned out to be 0.53 ± 0.2.

As for YHITSSLWVDDIHVLLNMGP, the amyloid nucleation score amounted to 0.328 ± 0.42.

YHNCNQHSWYRMRCFG: the amyloid nucleation score is -0.417 ± 1.1.

Take YHPTLVLGYQLTLLFMAFL: the amyloid nucleation score stood at 0.613 ± 0.74.

Consider YHRSCFWDYLISDGLKQACH, for which the amyloid nucleation score is -1.51 ± 0.78.

Regarding YICMLLDKPRFLSRSSRSLV, the amyloid nucleation score result is “inactive”.

As for YIELMGHWVGTSRKCVSDRS, the amyloid nucleation score is -0.243 ± 1.1.

The substance YIGCNNYEGKNKCVIFLSFS gave an amyloid nucleation score of 6.079 ± 0.05.

As to YIGQVGYRCSAVGQSYSRPG, the amyloid nucleation score is 1.87 ± 0.47.

In turn, YIRIYRVTMRFNCINVAPWG displayed an amyloid nucleation score of 6.928 ± 0.048.

For the substance YITFLVWFQNFGYTGHD, the amyloid nucleation score worked out at 7.162 ± 0.062.

Regarding YIVACSWYSGLLGLVGYRRK, the amyloid nucleation score was 7.884 ± 0.036.

For the substance YKLYTFCKSRMHVPAYGFSY, the amyloid nucleation score is -1.96 ± 1.1.

As for YKRCYIKIEWFQMCFNVVTR, the amyloid nucleation score entry was “inactive”.

Regarding YKVLSISLIVDTFARLYYAL, the amyloid nucleation score was -0.921 ± 0.54.

Consider YLCAFVRWWYR, for which the amyloid nucleation score was -0.029 ± 1.1.

Take YLCPTSGKLCGSSGKTMVTV: the amyloid nucleation score is -1.18 ± 0.48.

The substance YLFSLKQLWF displayed an amyloid nucleation score of 5.06 ± 0.078.

For the substance YLGRHDYKSVGGSFIPRQSK, the amyloid nucleation score was -0.661 ± 1.1.

In the case of YLGTF, the amyloid nucleation score stood at 0.187 ± 0.56.

Substance YLIIKCDKRCVEDFDALLE returned an amyloid nucleation score of 4.4 ± 0.071.

With YLIISMRFISSTQYRFFSVH, the amyloid nucleation score was 0.498 ± 0.19.

Turning to YLPFMWCCMIWWAGGVCRL, the amyloid nucleation score is -0.143 ± 0.76.

Take YLSTFVGTVHDSHTCRFCWN: the amyloid nucleation score was found to be 3.79 ± 0.13.

For YLSTGNNMFLNVQDSQGA, the amyloid nucleation score came out at 1.36 ± 0.13.

Substance YLTSINLRVGGSWLCNNGRM yielded an amyloid nucleation score of 1.96 ± 0.14.

Regarding YLVELNV, the amyloid nucleation score came to 0.344 ± 0.56.

With YLVNNAEMVNMELMISVSGA, the amyloid nucleation score is -0.337 ± 0.38.

On to YMERIYRWYSQCNRCQVRLW, for which the amyloid nucleation score is -0.644 ± 0.54.

YMLTKYRYS had an amyloid nucleation score of 0.734 ± 0.81.

YMSARVMFGGEPCCCGSGGE came in with an amyloid nucleation score of 1.74 ± 0.27.

Regarding YMSATVRCIYSRLY, the amyloid nucleation score amounted to 3.05 ± 0.13.

On to YMSGGVRKGPIAKALNFVRS, for which the amyloid nucleation score is -0.854 ± 0.56.

YMYDVRICPFDNWVYRRNEC: the amyloid nucleation score is -0.107 ± 0.74.

For the substance YMYFRVFDS, the amyloid nucleation score came to 0.525 ± 0.34.

Regarding YNESVHANVYVLLILKGLES, the amyloid nucleation score stood at 6.621 ± 0.048.

As for YNFGEFACYHH, the amyloid nucleation score is 3.81 ± 0.099.

Substance YNFRSSLRNGYKEVRGVQYG displayed an amyloid nucleation score of 5.221 ± 0.043.

YNGMAHGCHVGASSRRLE displayed an amyloid nucleation score of 0.117 ± 0.32.

As for YNGPLHYDRNDSSVKQSVFI, the amyloid nucleation score result is “inactive”.

Consider YNIWL, for which the amyloid nucleation score was 2.49 ± 0.12.

For YNKSSYE, the amyloid nucleation score was -1.47 ± 1.1.

In the case of YNQFNFFTG, the amyloid nucleation score amounted to 6.913 ± 0.045.

With YNRGMQLIAVVL, the amyloid nucleation score turned out to be 0.725 ± 0.39.

With YNSSCCSERSYLLSVFRISR, the amyloid nucleation score was found to be 0.178 ± 0.17.

Consider YNSYVVRMGTI, for which the amyloid nucleation score is -0.417 ± 1.1.

The substance YNVMHRPGGWDFMYGNWMLG had an amyloid nucleation score of 4.63 ± 0.063.

On to YNYVPLDFVRPVSDWSLELR, for which the amyloid nucleation score was -0.405 ± 0.39.

YPEDEFFQHRRWKRILSWDV: the amyloid nucleation score result is “inactive”.

As for YPITPFQA, the amyloid nucleation score was -0.872 ± 1.1.

YPNLFS came in with an amyloid nucleation score of 0.522 ± 0.74.

YPTASVTATSHTFILSSNKN: the amyloid nucleation score worked out at 3.48 ± 0.063.

For the substance YQKCTRIFQILCGSACLKTR, the amyloid nucleation score is -0.649 ± 0.64.

With YQLLLFV, the amyloid nucleation score is -0.969 ± 0.41.

With YQMISDSPNINIFYGFYSET, the amyloid nucleation score entry was “inactive”.

As to YQTYF, the amyloid nucleation score was -1.08 ± 0.41.

YQVFSQLEMRTYCKGKDFTL showed an amyloid nucleation score of 4.724 ± 0.038.
